Test system: Cavβ2 (Ca2+ beta2 channel accessory subunit), endogenous, mouse heart

Substance: recombinant active Akt
- in vitro kinase assay: Cavβ2-immunoprecipitates from cardiac homogenates incubated with recombinant active Akt and [γ-32]ATP: A band corresponding to phosphorylated Cavβ2 was detected only in the presence of the kinase
